± gives the standard error. For part of these data: Fewer inactive variants are shown than the library holds.
B1: glmS ribozyme (parent)
chain: AUAAAAGCGCCAGAACUACAGAAAUGUAGUUGACGAGGAGGAGGUUUAUCGAAUUUUCGGCGGAUGCCUCCAAA

Columns and labels:
Settings in all cases: with glucosamine-6-phosphate
glucosamine-6-phosphate [1] = variants of: B1; test: kcat; higher = faster cleavage; RNA array
Method in brief: (§1)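 Barcoded ribozyme variants on sequenced MiSeq chips were transcribed in situ by E. coli RNA polymerase and followed at 37 °C through a hybridised Cy3 probe. Glucosamine-6-phosphate at 40 μM to 10 mM in HEPES/KCl/Mg(OAc)2 buffer was flowed in, and tiles were imaged over ~14 h. Signals were normalised to baseline and to non-cleaving reference variants, and per-tile medians were fit to one- or two-exponential decays to give kobs. Weighted Michaelis–Menten fits across concentrations gave kcat and KM.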

glucosamine-6-phosphate [2] = variants of: B1; test: KM; higher = weaker cofactor use; RNA array
Method in brief: as §1

glucosamine-6-phosphate [3] = variants of: B1; test: self-cleavage kobs at 40 uM GlcN6P; higher = faster cleavage; RNA array
Method in brief: as §1

glucosamine-6-phosphate [4] = variants of: B1; test: self-cleavage kobs at 160 uM GlcN6P; higher = faster cleavage; RNA array
Method in brief: as §1

glucosamine-6-phosphate [5] = variants of: B1; test: self-cleavage kobs at 640 uM GlcN6P; higher = faster cleavage; RNA array
Method in brief: as §1

glucosamine-6-phosphate [6] = variants of: B1; test: self-cleavage kobs at 2500 uM GlcN6P; higher = faster cleavage; RNA array
Method in brief: as §1

glucosamine-6-phosphate [7] = variants of: B1; test: self-cleavage kobs at 10000 uM GlcN6P; higher = faster cleavage; RNA array
Method in brief: as §1

Variant | kcat (glucosamine-6-phosphate [1]) [s⁻¹] | KM (glucosamine-6-phosphate [2]) [µM] | self-cleavage kobs at 40 uM GlcN6P (glucosamine-6-phosphate [3]) [s⁻¹] | self-cleavage kobs at 160 uM GlcN6P (glucosamine-6-phosphate [4]) [s⁻¹] | self-cleavage kobs at 640 uM GlcN6P (glucosamine-6-phosphate [5]) [s⁻¹] | self-cleavage kobs at 2500 uM GlcN6P (glucosamine-6-phosphate [6]) [s⁻¹] | self-cleavage kobs at 10000 uM GlcN6P (glucosamine-6-phosphate [7]) [s⁻¹]
C16U U45G | 0.00669 ± 0.00062 | 2070 ± 280 | 0.000135 ± 2.4e-05 | 0.000468 ± 0.00016 | 0.00156 ± 0.00026 | 0.00321 ± 0.00074 | 0.00593 ± 0.001
G29A U56G | 0.00237 ± 0.00067 | 1720 ± 760 | 6.78e-05 ± 1.3e-05 |  | 0.000577 ± 9.1e-05 | 0.00129 ± 0.00021 | 0.00257 ± 0.00053
C16U U57G | 7.51e-05 ± 1.3e-05 |  |  |  | 3.61e-05 ± 1.3e-05 | 4.22e-05 ± 8.4e-06 | 7.03e-05 ± 1.1e-05
U30C G63U | 1.08e-05 ± 3e-06 |  |  |  |  |  | < 1e-05
G29C A53U | 0.00163 ± 0.00038 | 1950 ± 640 | 5.34e-05 ± 1.1e-05 | 0.000111 ± 1.9e-05 | 0.000383 ± 6.3e-05 | 0.000902 ± 0.0002 | 0.00141 ± 0.00024
U30A A48C | 9.77e-05 ± 4.8e-06 |  |  |  |  |  | 4.29e-05 ± 8.1e-06
G29U G41U | 8.68e-05 ± 1.2e-05 | 651 ± 270 |  |  | 5.08e-05 ± 1.6e-05 | 6.65e-05 ± 2.9e-05 | 7.94e-05 ± 2.1e-05
U30C G66A C67U | 6.3e-05 ± 4e-06 | 2940 ± 580 |  |  |  | 2.96e-05 ± 1.2e-05 | 4.86e-05 ± 1e-05
G29C C50U | < 1e-05 |  |  | < 1e-05 |  |  | 

— the supplement of paper PMC7125110
